The text below walks through data of US20150329606A1 (COMMISSARIAT A L ENERGIE ATOMIQUE ET AUX ENERGIES …, published 2015).

For the assay, the target named is T1, C1q derived from serum (human, UniProt P02745 23-245; P02746 28-253; P02747 29-245).
T1 construct: mature; Native C1q from serum, the comparator in SPR; The SPR paragraph says only 'serum C1q'; also called serC1q; serum C1q
Description: SPR, C1q immobilized on CM5 chip, tetramer injected at 1-24 nM.

T1 sequence (P02745 23-245, chain 1 of 3): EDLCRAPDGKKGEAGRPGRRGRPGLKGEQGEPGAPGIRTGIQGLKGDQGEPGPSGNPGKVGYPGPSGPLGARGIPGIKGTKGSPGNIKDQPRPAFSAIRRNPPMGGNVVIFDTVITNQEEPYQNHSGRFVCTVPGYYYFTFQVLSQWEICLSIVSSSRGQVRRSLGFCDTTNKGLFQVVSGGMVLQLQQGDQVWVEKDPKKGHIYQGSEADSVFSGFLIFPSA
T1 sequence (P02746 28-253, chain 2 of 3): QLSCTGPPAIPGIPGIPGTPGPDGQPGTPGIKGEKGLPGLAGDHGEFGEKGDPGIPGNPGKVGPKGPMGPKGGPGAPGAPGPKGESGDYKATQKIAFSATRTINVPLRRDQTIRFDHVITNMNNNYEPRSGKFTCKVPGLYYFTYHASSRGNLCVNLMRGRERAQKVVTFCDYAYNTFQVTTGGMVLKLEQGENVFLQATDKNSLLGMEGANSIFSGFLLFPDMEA
T1 sequence (P02747 29-245, chain 3 of 3): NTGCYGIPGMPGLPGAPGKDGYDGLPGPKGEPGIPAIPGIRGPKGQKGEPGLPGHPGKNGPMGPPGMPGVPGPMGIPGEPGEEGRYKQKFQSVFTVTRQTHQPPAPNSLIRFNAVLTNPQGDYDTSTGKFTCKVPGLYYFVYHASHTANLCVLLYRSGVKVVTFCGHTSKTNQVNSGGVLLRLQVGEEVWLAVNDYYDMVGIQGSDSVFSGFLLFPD

B1: C1s-C1r-C1r-C1s tetramer (enzyme)
chain 1: SIPIPQKLFGEVTSPLFPKPYPNNFETTTVITVPTGYRVKLVFQQFDLEPSEGCFYDYVKISADKKSLGRFCGQLGSPLGNPPGKKEFMSQGNKMLLTFHTDFSNEENGTIMFYKGFLAYYQAVDLDECASRSKSGEEDPQPQCQHLCHNYVGGYFCSCRPGYELQEDTHSCQAECSSELYTEASGYISSLEYPRSYPPDLRCNYSIRVERGLTLHLKFLEPFDIDDHQQVHCPYDQLQIYANGKNIGEFCGKQRPPDLDTSSNAVDLLFFTDESGDSRGWKLRYTTEIIKCPQPKTLDEFTIIQNLQPQYQFRDYFIATCKQGYQLIEGNQVLHSFTAVCQDDGTWHRAMPRCKIKDCGQPRNLPNGDFRYTTTMGVNTYKARIQYYCHEPYYKMQTRAGSRESEQGVYTCTAQGIWKNEQKGEKIPRCLPVCGKPVNPVEQRQRIIGGQKAKMGNFPWQVFTNIHGRGGGALLGDRWILTAAHTLYPKEHEAQSNASLDVFLGHTNVEELMKLGNHPIRRVSVHPDYRQDESYNFEGDIALLELENSVTLGPNLLPICLPDNDTFYDLGLMGYVSGFGVMEEKIAHDLRFVRLPVANPQACENWLRGKNRMDVFSQNMFCAGHPSLKQDACQGDSGGVFAVRDPNTDRWVATGIVSWGIGCSRGYGFYTKVLNYVDWIKKEMEEED
chain 2: EPTMYGEILSPNYPQAYPSEVEKSWDIEVPEGYGIHLYFTHLDIELSENCAYDSVQIISGDTEEGRLCGQRSSNNPHSPIVEEFQVPYNKLQVIFKSDFSNEERFTGFAAYYVATDINECTDFVDVPCSHFCNNFIGGYFCSCPPEYFLHDDMKNCGVNCSGDVFTALIGEIASPNYPKPYPENSRCEYQIRLEKGFQVVVTLRREDFDVEAADSAGNCLDSLVFVAGDRQFGPYCGHGFPGPLNIETKSNALDIIFQTDLTGQKKGWKLRYHGDPMPCPKEDTPNSVWEPAKAKYVFRDVVQITCLDGFEVVEGRVGATSFYSTCQSNGKWSNSKLKCQPVDCGIPESIENGKVEDPESTLFGSVIRYTCEEPYYYMENGGGGEYHCAGNGSWVNEVLGPELPKCVPVCGVPREPFEEKQRIIGGSDADIKNFPWQVFFDNPWAGGALINEYWVLTAAHVVEGNREPTMYVGSTSVQTSRLAKSKMLTPEHVFIHPGWKLLEVPEGRTNFDNDIALVRLKDPVKMGPTVSPICLPGTSSDYNLMDGDLGLISGWGRTEKRDRAVRLKAARLPVAPLRKCKEVKVEKPTADAEAYVFTPNMICAGGEKGMDSCKGDSGGAFAVQDPNDKTKFYAAGLVSWGPQCGTYGLYTRVKNYVDWIMKTMQENSTPRED
notes: also called C1s-C1r-C1r-C1s proenzyme tetramer;2-C1s2
For orientation: Kd means the constant that tells how readily two partners part at equilibrium. Low readings indicate higher affinity, high ones lower affinity. What is called koff is the rate constant with which the complex falls apart. A low value points to a long-lived complex. As a reminder, the kon is the second-order rate constant of association. In turn, B1 came in with a Kd of 3.12 nM, a koff of 0.00212 s⁻¹ and a kon of 681000 M⁻¹ s⁻¹.
